Values quoted from earlier work in article PMC12055905.
pKd: −log10 of the molar value.

Target: SARS-CoV-2 spike RBD (SARS-CoV-2) (UniProt P0DTC2)

For HBD-2 (from UniProt O15263), the pKd is listed as 6.52.
